In this test the target is RBD-Fc (secreted recombinant receptor-binding domain of SARS-CoV-2 spike) (SARS-CoV-2, UniProt P0DTC2). Description: immunoassay on cellulose filter paper discs.

B1: Ty1-CBD bifunctional fusion protein (nanobody Ty1 fused to a cellulose-binding domain) (VHH)
VHH: QVQLVETGGGLVQPGGSLRLSCAASGFTFSSVYMNWVRQAPGKGPEWVSRISPNSGNIGYTDSVKGRFTISRDNAKNTLYLQMNNLKPEDTALYYCAIGLNLSSSSVRGQGTQVTVSS
As for B1, the binding result is “binds”.

B2: Ty1 without CBD module (control protein) (VHH)
VHH: B1 VHH
In the case of B2, the binding result is recorded as “binds”.

The record behind these values is article doi:10.1101/2021.09.01.458653 (bioRxiv, 2021).
